According to the DeepSol protein solubility set:

Test: soluble on expression in E. coli; label from the status in PepcDB or PDB records
In the case of “MRNTIEIEDPNHRPFTISSNYAYYIGYLDLRPDGMGYHKRGEMNGLWYPPLRVLKNIYVSDGKTVFKPAHAEIGYSEARFEFYGTTLQISFQDDNDFEIAVKNASNDVRKLIVELHPETVWYTVNDTRIKVNRRSAIIYSHMFPETRLRIAASSEFSIENGRLSLLADGKSSLRISSACLHSHRPPIRVNRYRDIDRFSLLRGGGQIGENFRTAKDNLIRLSLINQETGYGLTAGHPDFPWYFGIDTLLSFNGILDAGLFELAFGSLNILARYSKSGKIPHEILTSGKVYNDGDLEETALFPYAVFKYAEWAGYTEEMRHLATIASESFNYLFAHGFQGRGIMEDPKAGEGVDIDTISFTIMSLMELQKVMDMDQEAFGGIADAVKPTEAIDALRKTVQSFWMSERRTFANRIVDGVPVDLGFWTSIIPFYTGIAGIDQYRKFVSDGGGLSRISSSSGIVVDASGNSMPVNTGMFVLGSIRYGDAENAARYFKMLDRSLGLFSPGAYPEISNNPQGCYLQAWSAAIYIESIVEGFFGIHSEGGRLISKPFNSSLMPGGATLKNVRFRNKYYDFIL”, the “soluble on expression in E. coli” value is reported as “not soluble”.
In the case of “GSSHHHHHHDYDIPTTENLYFQGSAHRPRWTLSQVTELFEKPLLDLLFEAQQVHRQHFDPRQVQVSTLLSIKTGACPEDCKYCPQSSRYKTGLEAERLMEVEQVLESARKAKAAGSTRFCMGAAWKNPHERDMPYLEQMVQGVKAMGLEACMTLGTLSESQAQRLANAGLDYYNHNLDTSPEFYGNIITTRTYQERLDTLEKVRDAGIKVCSGGIVGLGETVKDRAGLLLQLANLPTPPESVPINMLVKVKGTPLADNDDVDAFDFIRTIAVARIMMPTSYVRLSAGREQMNEQTQAMCFMAGANSIFYGCKLLTTPNPEEDKDLQLFRKLGLNPQQTAVLAGDNEQQQRLEQALMTPDTDEYYNAAAL”, the “soluble on expression in E. coli” value is reported as “soluble”.
In the case of “MGSDKIHHHHHHNKIPTTMAFRTVTDVDNAVNGLYDLMSGSGYYGAAMFAYGDMKGDDMQSSEESGVCNTCYMFNHRPNSLNAGSLWGRPFYILREAWNILNAIAEGKIESGDEKKLNALKGETMAVIALCQFDLTRCFGYPYTKDKGASLGAPLIDHLVGTYENPPRSTVAQAYDFIIETLEEAVTLMSEEKNNGRMNKYAARALLARIYLYHDDNRKAFDLADQLIKDADTSGSYALYPHEKYVAAWSVEAKFGSESFFEIANSVDDTPGRDSWGYLLNWYGYQKGFVTQKYAEQMLADPGDVRGHLLEENKYAGKTVWWLYKLRGTDLKTAPLECNNVVLRLSEVYLIAAEAGCKLGGDAAVQGLGYLNEIVKRGNPDNEVTMADYTLDRVLDERSKELVGEGHRFFDLLRNGKTIVRKGGYHLPSVDEEVDWDFYKCVLPIPEDQFIFSPEMEQNPGYPKN”, the “soluble on expression in E. coli” value is reported as “not soluble”.
In the case of “MAHHHHHHMSSSAEEKEAKKQEELRLAGSDSEGVRAAVKAQRELKKKRDALRKVQKKIRSGGSDAEVAAAIEQEAALLAEIGHLEALRGASSAPSTAHVAAASFTSTPATAAASPGALVTVATNKSSGAKAARSGEPAKEITAEERAASAKRLHDLVQGAMDANRLKCLHVLPRDAVVHPRIAEVAVLMEQMLLVGGSARALALISAFRELSRTTTVLAVPSLNEVNTTAFEKLIQINFDFVRRKREASAGMRHVKDVLVRRFVALRDEVIHPKPNMVDLIKDL”, the “soluble on expression in E. coli” value is reported as “not soluble”.
In the case of “MGSDKIHHHHHHMSTVQDASSVGSLFGAEAAKTSKSGSSDTQDRFLSLLVAQMKNQDPLNPLDNAEVTSQMAQLSTVEGIENMNKSLEALASSMGASQMSQAANLIGHAVLVPGNAVGPGQLENLMGFELTRPADKVTLDIHDAGGNLVRSVDLGPRDAGVNVVAWDGLTGSGAVAPAGAYSFKVSAVQGGQAQSSIALNVGLVNSVSQNSEGVQLNLAGNGSVGYADIREIF”, the “soluble on expression in E. coli” value is reported as “not soluble”.
With “MVSQVRQNYHSDCEAAVNRMLNLELYASYTYSSMYAFFDRDDVALHNVAEFFKEHSHEEREHAEKFMKYQNKRGGRVVLQDIKKPERDEWGNTLEAMQAALQLEKTVNQALLDLHKLATDKVDPHLCDFLESEYLEEQVKDIKRIGDFITNLKRLGLPENGMGEYLFDKHSVKESS” the “soluble on expression in E. coli” value was “soluble”.
With “MNIVALHVVLYHPEIPANTGNIARTCAATNTTLHLIRPLGFSTDDKMLKRAGLDYWEFVNVVYHDSLEELFEAYKKGKFFFITKFGQQPHTSFDYTDLDEDYFFVFGRETSGLPKDLIQNNMDRCLRLPMTEHVRSLNLSNTAAILVYEALRQQNYRDLK” the “soluble on expression in E. coli” value was “soluble”.
For “SNAEKAVLIGEKEADITFVTWGSQKGPILDVIEDLKEEGISANLLYLKMFSPFPTEFVKNVLSSANLVIDVESNYTAQAAQMIKLYTGIDIKNKILKYNGRHMTEDEILKSAKEILNK”, the “soluble on expression in E. coli” value was “soluble”.
With “MHRKRERERERERERERERERERERERERERGRDEETSKEKRVTET” the “soluble on expression in E. coli” value was “soluble”.
In the case of “MAKYNEKKEKKRIAKERIDILFSLAERVFPYSPELAKRYVELALLVQQKAKVKIPRKWKRRYCKKCHAFLVPGINARVRLRQKRMPHIVVKCLECGHIMRYPYIKEIKKRRKEKMEYGGLVPR”, the “soluble on expression in E. coli” value is reported as “soluble”.
For “MSLSILNSNAALRGLLDQHLADLSREEGLAPETIRDAIERGTMVLLGNPSHPSLRPILVGQPARVKVNANIGTSPMRNHPECEMQKVDAAVEAGADTIMDLSIAGDLDAIRREMLARCPLPLGTVPLYSVAQKYIECGKDPALIDPEEIFAEIEKQAQQGVDFMTVHCGLTRRGAEWAAKGDRLLGIVSRGGSILARWMLRHDRENPLLTGYDRILDIARKYNVTLSLGDGLRPGAGADAGDAAQWEEVMVLGQLAKRGLEAGVQCMIEGPGHVPMNEVEAQIVGIKKLTHGAPLYVLGPLVIDSCPGYDHIAGAIGGALAVRSGVDFLCYLTPAEHLTLPTREDVRAGVIASRIAAQAGEVALGRPHALARELGMGKARKALDWPGMERHALDAAMVDERRGEHRNEEECAMCGKFCAVKMLRDDPQGAFEGHHHHHH”, the “soluble on expression in E. coli” value was “soluble”.
In the case of “SGFNHVKPTEYKPRLLHISGDKNAKVAEVPLATSSLNSGDCFLLDAGLTIYQFNGSKSSPQEKNKAAEVARAIDAERKGLPKVEVFCETDSDIPAEFWKLLGGKGAIAAKHETA”, the “soluble on expression in E. coli” value is reported as “soluble”.
For “GMPSEKQPQSKGNKMAILKLDEHLYISPQLTKADAEQIAQLGIKTIICNRPDREEESQPDFAQIKQWLEQAGVTGFHHQPVTARDIQKHDVETFRQLIGQAEYPVLAYCRTGTRCSLLWGFRRAAEGMPVDEIIRRAQAAGVNLENFRERLDNARV”, the “soluble on expression in E. coli” value was “soluble”.
With “MNIEIKDTLISEEQLQEKVKELALQIERDFEGEEIVVIAVLKGSFVFAADLIRHIKNDVTIDFISASSYGNQTETTGKVKLLKDIDVNITGKNVIVVEDIIDSGLTLHFLKDHFFMHKPKALKFCTLLDKPERRKVDLTAEYVGFQIPDEFIVGYGIDCAEKYRNLPFIASVVTEESYNLKSR” the “soluble on expression in E. coli” value was “soluble”.
With “GSSHCRFYENKYPEIDDIVMVNVQQIAEMGAYVKLLEYDNIEGMILLSELSRRRIRSIQKLIRVGKNDVAVVLRVDKEKGYIDLSKRRVSSEDIIKCEEKYQKSKTVHSILRYCAEKFQIPLEELYKTIAWPLSRKFGHAYEAFKLSIIDETVWEGIEPPSKDVLDELKNYISKR” the “soluble on expression in E. coli” value was “soluble”.
With “MMEHDRARTRAWVLHPELKSDLDRRDPVPALEEAVALAAALPDLDVVGSGIVRLPKPHPGHLFGSGKVEELATLFHDNEVELVLIDGPLSPVQQRNLEKAWKVKILDRTGLILEIFSDRARTREGVLQVEMAALSYQRTRLVRAWTHLERQRGGLGFVGGPGETQIEADRRAIDEQLVRLKRQLDKVVKTRELHRKARAKVPYPIVALVGYTNAGKSTLFNRLTGAEVMAKDMLFATLDPTMRRVVLPDGPEVILSDTVGFISDLPTELVAAFRATLEEVLAADLIVHVRDIHHAATEEQARDVETILASLGVDEGRPKFEVWNKVDLLDPDKRAALRERTARDPSLFAVSAVTGEGLESLLTAIAEALAETRSEAVLTLGFADGKRRAWLFAQDVVQAEEQSDDGFRLTVLWTPRQAARYAALLEHHHHHH” the “soluble on expression in E. coli” value was “soluble”.
With “ANFQYIITEKKGKNSSVGLIQLNRPKALNALCNGLIEELNQALETFEEDPAVGAIVLTGGEKAFAAGADIKEMQNRTFQDCYSGKFLSHWDHITRIKKPVIAAVNGYALGGGCELAMMCDIIYAGEKAQFGQPEILLGTIPGAGGTQRLTRAVGKSLAMEMVLTGDRISAQDAKQAGLVSKIFPVETLVEEAIQCAEKIANNSKIIVAMAKESVNAAFEMTLTEGNKLEKKLFYSTFATDDRREGMSAFVEKRKANFKDH” the “soluble on expression in E. coli” value was “soluble”.
For “MATLYDVPPEELIEALTETLADEDDIEAPDWAEFTKTGVDRELPPEQEDFWTRRAASLLRKVAVDGPVGVNALRSEYGTSKQGTTRYRVRPHQKTKGSGNIIRTALQQLEDAGYVETSENDGRRVTGDGRSLLDDTAGDLLTELDRPELERYALEHHHHHH”, the “soluble on expression in E. coli” value was “soluble”.
In the case of “MEFDKLYGPSNVENRLVQVKATTAEAIHFNRQIQPIIENRCVVCHGCYDAPCQLKMESRAGIERGANKAMVYNGERLLTANISASLTKLTELKRDNLEPLRQQGYFPVLNERQQTEQANTQSSLFYQMLQLKKQHPLPSEPILNESFDVALDRSQQCPTIEEFEQYKDKYPLGGMPYALPALSTTEHDQLTDWIARGAIMPDSVPPNAKEQQMINRWEKLLNGSSAKEQLIARYLFEHLYLANLYFDKAQSSYFKLVRSSSPSGEKVAVITTRRPFDSPYADGSTDAIVDKPQVYYRLIKHNDTIIAKRHMPYPFGESKLARISELFYQPDYPVTTLPDYQLANASNPFKTFQAIPDKARYQFLLDQAQFSIMNFIKGPVCRGQIALNVIEDNFWVFFLSPNNFDHYPSEQFIKANTELLQLPAGTSDKSLSLLYWRQYAKSQQEYVKNKLAYVEGLNLQPNQLNLDLIWSGKGNPNASLTVFRHFDSASVLQGFVGPTPKTAWLISYPLLERIHYLLVAGFDVYGSVSHQLKTRLYMDFLRMEAESNFISFLPKDERKAIHEYWYRETGDDIKDYIFSDGFYQLPETGMNYQSNKHQEELFQLVGQHTKNTNVSQFNLSSLAQSSADKIIANLSQLPNESVALLPQVSYVMVSNGDDNQVYSLINNSAHSNVAHLFSEENRRLPREDNLAILRGVVGTYPNAFFKVEQAQLSEFVSNLNAIKTEQDYRKLKDQFAIRRTNPKFWIFADELHAWYKTNQPKSAGLLDFNRLENRLEHHHHHH”, the “soluble on expression in E. coli” value is reported as “not soluble”.
With “AHHHHHHGSIWEEILNFEPYRAVEGNYRIWLDKNESPYDLPPQLKEEILEELKRIEFNRYPHITSDPLREALAEFYGLKKENIAVGNGSDELINYLVKMFKGKYIVVTSPTFGMYSFFAKLHGIPVKDIPLKEDFTIDGERIAEEGKAASAIFIASPNNPTGNSQPENEVLKVLDSGRVVILDEAYSEFSGKSFIPKISEYENLVILRTFSKAFGLAGIRCGYMIANEKIIDALYRILPPYNLNSLTMTVAIKMLEHYDIVKRRIKLIVKERERIRREFIEYSYPSEANFLLMKLDAYDYLLKKGIVVRKLSGRLEGHIRVTIGKKWENDELIKALKEFLEECRCG” the “soluble on expression in E. coli” value was “soluble”.
In the case of “MFEIRDVDLAGRIGRIYTQHGVVETPAFFPVIDVYRQEVSVDEVRAAGFGQVITNAYLLWKRFGWEAAEKGVHRILGFPGVVMTDSGAYQILEYGGVELSQGEVVEYQKRLGSDIAVILDIPTGDVGRREAEESVRETIRRALEARVMIEGDERIWVYPVQGGRYFDLVEESARVGGRLGFYRMYGIGSPTVFLERYMYHVVVEAVYRAKKHLPWGRPVHLFGAGHPLIFPYAVALGVDTFDSASYILYAREGRYITEYGVYRIEDLDYLPCSCPVCSRYTPQELREMDRVERTRLLALHNLYVISASMRRVKQAIREGRLWELLEETSRKHPSTARVMARMRRYIDALEKGSARGRGVVRGVRAYGLESLSNPRLSRFSSDAARLVEAMAEKWGGGKAVLKPLDPKPEPGQCESMVGGGEWILFYQPFLGVFPVEACGAYPSLQIDYPQEGLPAEVIGDLASKIASTVSILRGRGFTVRLEYCGKVEWQARAVEALKTAAAGDLPTVEACG”, the “soluble on expression in E. coli” value is reported as “soluble”.
